Measurements published in the supplement of paper PMC10065799, “High-throughput profiling of sequence recognition by tyrosine kinases and SH2 domains using bacterial peptide display” (eLife, 2023).

system: c-Abl (mouse); assay: phosphorylation enrichment, bacterial display (enrichment ratio); higher = better substrate or ligand; peptides without Tyr show the background
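Further: 11-residue human phosphosite peptides and single-mutation variants displayed on the E. coli surface, counted by deep sequencing, each peptide's frequency after selection divided by its frequency in the unselected input library; frequency after pTyr selection over input frequency; kinase dosed for 20-30% of maximal phosphorylation in three min.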

Sequence | phosphorylation enrichment
HPFHVYSQPGM [BAG3_Y114_P115S] | 0.847
KLQKYYRQNPD [EHHADH_Y683] | 0.482
KDGIGYISAAE [CALM2_Y100_N98I] | 0.557
QFLMMYVWSAS [ABCD1_Y337_K336M] | 1.27
GGRKGYGGFSR [RECQL5_Y478_D480G] | 0.506
CHSDDYVHISL [TSC1_Y406] | 0.781
PVQAADQKVVA [HBB_Y131_Y131D] | 0.781
FKDVTYLKEEK [UBE3A_Y127_T129K] | 0.809
PVVKLYATEGR [RP1_Y199_D202E] | 0.71
VFFFSYLLKNH [PTEN_Y180_YF] | 0.918
KPLMPYMRFSR [SMARCE1_Y73_YF] | 0.99
SRDDDYETIAM [NPY1R_Y347] | 0.977
EEGNPYFSSAR [MCCC2_Y520_YF] | 0.796
DRPASYKKKSM [PDGFRA_Y768] | 0.546
KANEYYPVVLI [ADAMTS18_Y765] | 1.6
VDASYYGGRGV [ANTXR2_Y381] | 0.698
MDDPRYGMCPL [ZNF100_Y6] | 1.01
RGEKQYLATPL [ALOX12_Y295_A298T] | 1.02
SLGSPYEQPPR [PDLIM4_Y137_G138E] | 0.747
AFLEDYFTSTE [SRC_Y522] | 1.31
AEMKRYSESSS [RAI14_Y869_A870S] | 0.43
VECQVYAEDPF [PCCA_Y401_R399Q_YF] | 0.748
TYGVVYKARNK [CDK2_Y19] | 0.272
FSNVLYRPRGP [TMIGD2_Y197_A202P_YF] | 0.568
EAAFVYVISSA [WNT4_Y113_A114V] | 0.847
IFLGAYDRFLP [SLC22A5_Y486_V481I_YF] | 0.932
LLKNMYLMLDN [STAT1_Y203_K201N] | 1.7
KTGDFYDLFGG [PTPN11_Y63_N58K_YF] | 0.627
YFCRWYRNRKS [EREG_Y144] | 0.714

target: FGFR1 (UniProt P11362); assay: as above
Sequence (P11362 whole entry, looked up): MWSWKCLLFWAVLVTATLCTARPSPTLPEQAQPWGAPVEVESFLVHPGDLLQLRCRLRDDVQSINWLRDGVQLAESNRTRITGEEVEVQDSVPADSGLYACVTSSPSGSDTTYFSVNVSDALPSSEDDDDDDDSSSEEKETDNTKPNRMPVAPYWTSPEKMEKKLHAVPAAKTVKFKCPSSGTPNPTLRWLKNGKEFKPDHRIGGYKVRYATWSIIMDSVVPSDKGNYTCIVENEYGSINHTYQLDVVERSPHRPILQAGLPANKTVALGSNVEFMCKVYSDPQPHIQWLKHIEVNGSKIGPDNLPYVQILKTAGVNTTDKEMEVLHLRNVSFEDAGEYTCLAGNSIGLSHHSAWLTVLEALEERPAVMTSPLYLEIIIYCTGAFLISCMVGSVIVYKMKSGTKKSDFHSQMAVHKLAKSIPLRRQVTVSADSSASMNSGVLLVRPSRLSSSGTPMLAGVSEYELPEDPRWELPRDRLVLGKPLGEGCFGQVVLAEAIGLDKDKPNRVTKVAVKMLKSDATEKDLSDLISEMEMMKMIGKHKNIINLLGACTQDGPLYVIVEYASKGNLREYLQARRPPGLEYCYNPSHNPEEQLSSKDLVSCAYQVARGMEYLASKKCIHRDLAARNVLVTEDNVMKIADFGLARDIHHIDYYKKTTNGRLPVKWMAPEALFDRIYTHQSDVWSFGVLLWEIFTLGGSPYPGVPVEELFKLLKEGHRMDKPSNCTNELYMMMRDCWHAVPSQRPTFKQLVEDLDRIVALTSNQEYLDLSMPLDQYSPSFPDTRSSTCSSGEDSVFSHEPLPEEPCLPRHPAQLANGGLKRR

Sequence | phosphorylation enrichment
HPFHVYSQPGM [BAG3_Y114_P115S] | 0.753
KLQKYYRQNPD [EHHADH_Y683] | 0.413
KDGIGYISAAE [CALM2_Y100_N98I] | 0.476
QFLMMYVWSAS [ABCD1_Y337_K336M] | 0.426
GGRKGYGGFSR [RECQL5_Y478_D480G] | 0.391
CHSDDYVHISL [TSC1_Y406] | 1.23
PVQAADQKVVA [HBB_Y131_Y131D] | 0.654
FKDVTYLKEEK [UBE3A_Y127_T129K] | 0.481
PVVKLYATEGR [RP1_Y199_D202E] | 0.496
VFFFSYLLKNH [PTEN_Y180_YF] | 0.643
KPLMPYMRFSR [SMARCE1_Y73_YF] | 0.466
SRDDDYETIAM [NPY1R_Y347] | 0.599
EEGNPYFSSAR [MCCC2_Y520_YF] | 0.461
DRPASYKKKSM [PDGFRA_Y768] | 0.324
KANEYYPVVLI [ADAMTS18_Y765] | 11.2
VDASYYGGRGV [ANTXR2_Y381] | 0.772
MDDPRYGMCPL [ZNF100_Y6] | 0.538
RGEKQYLATPL [ALOX12_Y295_A298T] | 1.06
SLGSPYEQPPR [PDLIM4_Y137_G138E] | 0.46
AFLEDYFTSTE [SRC_Y522] | 1.16
AEMKRYSESSS [RAI14_Y869_A870S] | 0.681
VECQVYAEDPF [PCCA_Y401_R399Q_YF] | 0.446
TYGVVYKARNK [CDK2_Y19] | 0.354
FSNVLYRPRGP [TMIGD2_Y197_A202P_YF] | 0.367
EAAFVYVISSA [WNT4_Y113_A114V] | 0.496
IFLGAYDRFLP [SLC22A5_Y486_V481I_YF] | 0.427
LLKNMYLMLDN [STAT1_Y203_K201N] | 0.868
KTGDFYDLFGG [PTPN11_Y63_N58K_YF] | 0.523
YFCRWYRNRKS [EREG_Y144] | 0.61

target: MERTK (UniProt Q12866); assay: as above
Sequence (Q12866 whole entry, looked up): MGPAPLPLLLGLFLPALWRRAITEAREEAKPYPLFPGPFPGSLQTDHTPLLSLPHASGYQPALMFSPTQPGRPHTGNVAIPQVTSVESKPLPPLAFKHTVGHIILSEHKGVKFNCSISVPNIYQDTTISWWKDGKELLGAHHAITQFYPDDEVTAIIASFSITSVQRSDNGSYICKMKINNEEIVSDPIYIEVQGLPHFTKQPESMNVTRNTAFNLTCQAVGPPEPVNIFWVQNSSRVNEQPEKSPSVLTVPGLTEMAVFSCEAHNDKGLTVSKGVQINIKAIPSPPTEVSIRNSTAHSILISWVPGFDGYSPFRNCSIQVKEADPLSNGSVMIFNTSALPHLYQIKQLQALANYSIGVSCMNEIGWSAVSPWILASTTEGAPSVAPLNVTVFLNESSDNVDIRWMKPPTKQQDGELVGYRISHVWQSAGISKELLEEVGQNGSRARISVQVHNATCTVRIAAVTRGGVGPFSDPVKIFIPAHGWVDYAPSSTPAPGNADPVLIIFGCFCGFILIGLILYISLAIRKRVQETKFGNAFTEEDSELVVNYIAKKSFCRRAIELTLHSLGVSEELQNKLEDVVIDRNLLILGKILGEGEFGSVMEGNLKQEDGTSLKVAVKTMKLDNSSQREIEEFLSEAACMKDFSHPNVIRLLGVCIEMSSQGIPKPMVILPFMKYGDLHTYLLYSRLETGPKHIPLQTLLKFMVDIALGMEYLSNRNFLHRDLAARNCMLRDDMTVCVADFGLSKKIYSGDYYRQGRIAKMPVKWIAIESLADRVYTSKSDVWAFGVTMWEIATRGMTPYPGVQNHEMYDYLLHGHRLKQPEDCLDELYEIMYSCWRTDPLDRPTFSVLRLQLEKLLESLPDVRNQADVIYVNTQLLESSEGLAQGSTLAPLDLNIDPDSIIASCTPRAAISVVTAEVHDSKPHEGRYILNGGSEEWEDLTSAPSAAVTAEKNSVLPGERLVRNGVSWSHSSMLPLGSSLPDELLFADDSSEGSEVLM

Sequence | phosphorylation enrichment
HPFHVYSQPGM [BAG3_Y114_P115S] | 0.804
KLQKYYRQNPD [EHHADH_Y683] | 0.371
KDGIGYISAAE [CALM2_Y100_N98I] | 0.476
QFLMMYVWSAS [ABCD1_Y337_K336M] | 0.541
GGRKGYGGFSR [RECQL5_Y478_D480G] | 0.512
CHSDDYVHISL [TSC1_Y406] | 0.436
PVQAADQKVVA [HBB_Y131_Y131D] | 0.593
FKDVTYLKEEK [UBE3A_Y127_T129K] | 0.38
PVVKLYATEGR [RP1_Y199_D202E] | 0.574
VFFFSYLLKNH [PTEN_Y180_YF] | 0.362
KPLMPYMRFSR [SMARCE1_Y73_YF] | 0.479
SRDDDYETIAM [NPY1R_Y347] | 0.5
EEGNPYFSSAR [MCCC2_Y520_YF] | 0.462
DRPASYKKKSM [PDGFRA_Y768] | 0.418
KANEYYPVVLI [ADAMTS18_Y765] | 0.541
VDASYYGGRGV [ANTXR2_Y381] | 0.775
MDDPRYGMCPL [ZNF100_Y6] | 0.56
RGEKQYLATPL [ALOX12_Y295_A298T] | 0.53
SLGSPYEQPPR [PDLIM4_Y137_G138E] | 0.581
AFLEDYFTSTE [SRC_Y522] | 0.578
AEMKRYSESSS [RAI14_Y869_A870S] | 0.337
VECQVYAEDPF [PCCA_Y401_R399Q_YF] | 0.408
TYGVVYKARNK [CDK2_Y19] | 0.41
FSNVLYRPRGP [TMIGD2_Y197_A202P_YF] | 0.434
EAAFVYVISSA [WNT4_Y113_A114V] | 0.477
IFLGAYDRFLP [SLC22A5_Y486_V481I_YF] | 3.84
LLKNMYLMLDN [STAT1_Y203_K201N] | 0.745
KTGDFYDLFGG [PTPN11_Y63_N58K_YF] | 2.74
YFCRWYRNRKS [EREG_Y144] | 0.889

target: EPHB2 (UniProt P29323); assay: as above
Sequence (P29323 whole entry, looked up): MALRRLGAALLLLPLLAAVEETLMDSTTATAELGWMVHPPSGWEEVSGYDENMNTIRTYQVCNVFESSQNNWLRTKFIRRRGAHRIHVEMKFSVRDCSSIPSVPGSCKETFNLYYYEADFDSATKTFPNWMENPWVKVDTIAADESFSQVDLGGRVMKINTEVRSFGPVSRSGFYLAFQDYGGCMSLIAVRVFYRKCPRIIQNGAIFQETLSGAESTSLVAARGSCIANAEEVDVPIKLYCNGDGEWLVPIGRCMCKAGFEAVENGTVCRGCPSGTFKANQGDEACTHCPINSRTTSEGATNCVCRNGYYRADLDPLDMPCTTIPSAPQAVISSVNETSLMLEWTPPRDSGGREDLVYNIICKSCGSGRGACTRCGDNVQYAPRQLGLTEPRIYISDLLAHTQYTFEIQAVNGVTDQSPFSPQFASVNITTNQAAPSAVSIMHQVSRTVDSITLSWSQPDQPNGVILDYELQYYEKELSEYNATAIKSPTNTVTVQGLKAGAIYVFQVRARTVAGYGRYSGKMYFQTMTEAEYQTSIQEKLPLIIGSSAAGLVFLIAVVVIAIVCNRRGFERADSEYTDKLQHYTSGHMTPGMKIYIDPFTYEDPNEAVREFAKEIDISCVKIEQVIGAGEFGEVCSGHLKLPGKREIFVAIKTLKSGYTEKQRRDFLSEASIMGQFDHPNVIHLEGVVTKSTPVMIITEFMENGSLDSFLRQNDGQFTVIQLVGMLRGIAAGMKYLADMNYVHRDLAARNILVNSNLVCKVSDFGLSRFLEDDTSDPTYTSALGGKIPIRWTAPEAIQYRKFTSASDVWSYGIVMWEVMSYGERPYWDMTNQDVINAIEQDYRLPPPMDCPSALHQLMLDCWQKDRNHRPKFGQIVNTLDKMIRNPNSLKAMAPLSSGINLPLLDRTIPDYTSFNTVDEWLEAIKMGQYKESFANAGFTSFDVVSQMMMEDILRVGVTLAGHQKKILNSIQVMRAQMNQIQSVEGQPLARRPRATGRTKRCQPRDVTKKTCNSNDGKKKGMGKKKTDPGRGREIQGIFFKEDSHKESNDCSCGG

Sequence | phosphorylation enrichment
HPFHVYSQPGM [BAG3_Y114_P115S] | 0.945
KLQKYYRQNPD [EHHADH_Y683] | 0.464
KDGIGYISAAE [CALM2_Y100_N98I] | 0.424
QFLMMYVWSAS [ABCD1_Y337_K336M] | 0.931
GGRKGYGGFSR [RECQL5_Y478_D480G] | 0.396
CHSDDYVHISL [TSC1_Y406] | 0.65
PVQAADQKVVA [HBB_Y131_Y131D] | 0.718
FKDVTYLKEEK [UBE3A_Y127_T129K] | 0.447
PVVKLYATEGR [RP1_Y199_D202E] | 0.251
VFFFSYLLKNH [PTEN_Y180_YF] | 0.519
KPLMPYMRFSR [SMARCE1_Y73_YF] | 0.464
SRDDDYETIAM [NPY1R_Y347] | 1.03
EEGNPYFSSAR [MCCC2_Y520_YF] | 0.623
DRPASYKKKSM [PDGFRA_Y768] | 0.367
KANEYYPVVLI [ADAMTS18_Y765] | 3.11
VDASYYGGRGV [ANTXR2_Y381] | 0.386
MDDPRYGMCPL [ZNF100_Y6] | 0.675
RGEKQYLATPL [ALOX12_Y295_A298T] | 0.342
SLGSPYEQPPR [PDLIM4_Y137_G138E] | 0.493
AFLEDYFTSTE [SRC_Y522] | 0.606
AEMKRYSESSS [RAI14_Y869_A870S] | 0.329
VECQVYAEDPF [PCCA_Y401_R399Q_YF] | 0.548
TYGVVYKARNK [CDK2_Y19] | 0.563
FSNVLYRPRGP [TMIGD2_Y197_A202P_YF] | 0.399
EAAFVYVISSA [WNT4_Y113_A114V] | 0.656
IFLGAYDRFLP [SLC22A5_Y486_V481I_YF] | 1.41
LLKNMYLMLDN [STAT1_Y203_K201N] | 1.02
KTGDFYDLFGG [PTPN11_Y63_N58K_YF] | 0.463
YFCRWYRNRKS [EREG_Y144] | 0.572
